Patent publication US20230346934A1

Target: PDL1 on DMS 273-PDL1 target cells (UniProt Q9NZQ7)
Experiment: cell-based or functional assay

Sequence of UniProt Q9NZQ7 (Q9NZQ7 19-290 limits assumed): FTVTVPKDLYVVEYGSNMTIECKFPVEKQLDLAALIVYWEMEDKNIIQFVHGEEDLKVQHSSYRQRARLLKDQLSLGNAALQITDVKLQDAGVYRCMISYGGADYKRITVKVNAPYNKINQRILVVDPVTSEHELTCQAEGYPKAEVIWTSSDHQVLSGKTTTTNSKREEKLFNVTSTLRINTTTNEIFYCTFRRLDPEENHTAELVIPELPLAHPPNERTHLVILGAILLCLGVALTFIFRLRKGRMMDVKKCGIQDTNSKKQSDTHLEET

cytokine secretion (IL-2, IFNγ; Meso Scale Discovery) | Substance
> 10 fold | WT PD1.CD28 chimeric switch receptor
> 10 fold | HA PD1.CD28 chimeric switch receptor
